B1: minF1; the commonest letter at each place (parent)
chain: GAGACCGCAACTGAAAAGTTGTTATCAGAAATGGATGGGTTGAATTTCTGCACGTAGAAGCAAAAGGC

In the supplement of paper PMC6755084 one finds fraction ligated data, which are given here for 40 variants.

In the data set the parent is B1. Kind of data set: fraction ligated after 30 min (ligated reads / total reads); higher = more ligase activity. The settings on record: with F1*subA RNA substrate (template-directed ligation), 42 °C. The procedure:
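Chip-synthesised pool of minF1 ligase ribozyme variants (single and double substitutions, single to quadruple deletions, bulge and P2 designed variants) was transcribed with T7 and reacted as a pool with excess substrate F1*subA for 30 min at 42 C in 50 mM EPPS pH 8.5, 25 mM MgCl2. Ligated and unligated RNAs were separated by PAGE, barcoded by RT and deep sequenced; fraction ligated = ligated reads / total reads, relative activity = FL / FL of wild-type minF1 (0.76); sequencing FL correlated with PAGE (R2 = 0.98). Sequences are the DNA template of the ribozyme.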
For GAGACCGCAACTGAAAAGTTGTCATCAGATATGGATGGGTTGAATTTCTGCACGTAGAAGCAAAAGGC [T23C A30T], the fraction ligated stood at 0.221.

With GAGACCGCAACTGAAAAGTTGTCATCAGACATGGATGGGTTGAATTTCTGCACGTAGAAGCAAAAGGC [T23C A30C], the fraction ligated was 0.21.

For the variant GAGACCGCAACTGAAAAGTTGTCATCAGAGATGGATGGGTTGAATTTCTGCACGTAGAAGCAAAAGGC [T23C A30G], the fraction ligated came out at 0.391.

As for GAGACCGCAACTGAAAAGTTGTACTCAGAAATGGATGGGTTGAATTTCTGCACGTAGAAGCAAAAGGC [T23A A24C], the fraction ligated was determined as 0.0188.

As for GAGACCGCAACTGAAAAGTTGTAGTCAGAAATGGATGGGTTGAATTTCTGCACGTAGAAGCAAAAGGC [T23A A24G], the fraction ligated is 0.00909.

Take GAGACCGCAACTGAAAAGTTGTATTCAGAAATGGATGGGTTGAATTTCTGCACGTAGAAGCAAAAGGC [T23A A24T]: the fraction ligated worked out at 0.0331.

On to GAGACCGCAACTGAAAAGTTGTAATCAGAAAGGGATGGGTTGAATTTCTGCACGTAGAAGCAAAAGGC [T23A T32G], for which the fraction ligated worked out at 0.000962.

With GAGACCGCAACTGAAAAGTTGTAATCAGAAAAGGATGGGTTGAATTTCTGCACGTAGAAGCAAAAGGC [T23A T32A], the fraction ligated came to 0.00638.

Consider GAGACCGCAACTGAAAAGTTGTAATCAGAAACGGATGGGTTGAATTTCTGCACGTAGAAGCAAAAGGC [T23A T32C], for which the fraction ligated was determined as 0.00262.

For the variant GAGACCGCAACTGAAAAGTTGTCATCAGGAATGGATGGGTTGAATTTCTGCACGTAGAAGCAAAAGGC [T23C A29G], the fraction ligated amounted to 0.277.

As for GAGACCGCAACTGAAAAGTTGTCATCAGTAATGGATGGGTTGAATTTCTGCACGTAGAAGCAAAAGGC [T23C A29T], the fraction ligated is 0.288.

In the case of GAGACCGCAACTGAAAAGTTGTCATCAGCAATGGATGGGTTGAATTTCTGCACGTAGAAGCAAAAGGC [T23C A29C], the fraction ligated amounted to 0.254.

With GAGACCGCAACTGAAAAGTTGTAATCGGAAATGGATGGGTTGAATTTCTGCACGTAGAAGCAAAAGGC [T23A A27G], the fraction ligated is 0.234.

On to GAGACCGCAACTGAAAAGTTGTAATCTGAAATGGATGGGTTGAATTTCTGCACGTAGAAGCAAAAGGC [T23A A27T], for which the fraction ligated is 0.488.

GAGACCGCAACTGAAAAGTTGTAATCCGAAATGGATGGGTTGAATTTCTGCACGTAGAAGCAAAAGGC [T23A A27C]: the fraction ligated was determined as 0.0462.

As for GAGACCGCAACTGAAAAGTTGTCATCCGAAATGGATGGGTTGAATTTCTGCACGTAGAAGCAAAAGGC [T23C A27C], the fraction ligated worked out at 0.133.

For GAGACCGCAACTGAAAAGTTGTCATCTGAAATGGATGGGTTGAATTTCTGCACGTAGAAGCAAAAGGC [T23C A27T], the fraction ligated was found to be 0.595.

For the variant GAGACCGCAACTGAAAAGTTGTCATCGGAAATGGATGGGTTGAATTTCTGCACGTAGAAGCAAAAGGC [T23C A27G], the fraction ligated was 0.354.

For the variant GAGACCGCAACTGAAAAGTTGTAATCAGAAATGGATGGGTTGTATTTCTGCACGTAGAAGCAAAAGGC [T23A A43T], the fraction ligated is 0.00536.

As for GAGACCGCAACTGAAAAGTTGTAATCAGAAATGGATGGGTTGCATTTCTGCACGTAGAAGCAAAAGGC [T23A A43C], the fraction ligated worked out at 0.00617.

As to GAGACCGCAACTGAAAAGTTGTAATCAGAAATGGATGGGTTGGATTTCTGCACGTAGAAGCAAAAGGC [T23A A43G], the fraction ligated stood at 0.00242.

Regarding GAGACCGCAACTGAAAAGTTGTAATCAGAAATGCATGGGTTGAATTTCTGCACGTAGAAGCAAAAGGC [T23A G34C], the fraction ligated is 0.00115.

With GAGACCGCAACTGAAAAGTTGTAATCAGAAATGAATGGGTTGAATTTCTGCACGTAGAAGCAAAAGGC [T23A G34A], the fraction ligated was 0.0227.

For GAGACCGCAACTGAAAAGTTGTAATCAGAAATGTATGGGTTGAATTTCTGCACGTAGAAGCAAAAGGC [T23A G34T], the fraction ligated turned out to be 0.00436.

As to GAGACCGCAACTGAAAAGTTGTAATCAGAAATGGATAGGTTGAATTTCTGCACGTAGAAGCAAAAGGC [T23A G37A], the fraction ligated was 0.00757.

GAGACCGCAACTGAAAAGTTGTAATCAGAAATGGATTGGTTGAATTTCTGCACGTAGAAGCAAAAGGC [T23A G37T]: the fraction ligated was 0.00942.

For the variant GAGACCGCAACTGAAAAGTTGTAATCAGAAATGGATCGGTTGAATTTCTGCACGTAGAAGCAAAAGGC [T23A G37C], the fraction ligated worked out at 0.00499.

For GAGACCGCAACTGAAAAGTTGTCATCAGAACTGGATGGGTTGAATTTCTGCACGTAGAAGCAAAAGGC [T23C A31C], the fraction ligated was 0.328.

As to GAGACCGCAACTGAAAAGTTGTAATTAGAAATGGATGGGTTGAATTTCTGCACGTAGAAGCAAAAGGC [T23A C26T], the fraction ligated was determined as 0.0201.

As to GAGACCGCAACTGAAAAGTTGTAATAAGAAATGGATGGGTTGAATTTCTGCACGTAGAAGCAAAAGGC [T23A C26A], the fraction ligated came to 0.00635.

On to GAGACCGCAACTGAAAAGTTGTAATGAGAAATGGATGGGTTGAATTTCTGCACGTAGAAGCAAAAGGC [T23A C26G], for which the fraction ligated is 0.00512.

Turning to GAGACCGCAACTGAAAAGTTGTAATCAGAAATGGAAGGGTTGAATTTCTGCACGTAGAAGCAAAAGGC [T23A T36A], the fraction ligated was determined as 0.0114.

In the case of GAGACCGCAACTGAAAAGTTGTAATCAGAAATGGACGGGTTGAATTTCTGCACGTAGAAGCAAAAGGC [T23A T36C], the fraction ligated was determined as 0.012.

Regarding GAGACCGCAACTGAAAAGTTGTAATCAGAAATGGAGGGGTTGAATTTCTGCACGTAGAAGCAAAAGGC [T23A T36G], the fraction ligated amounted to 0.0346.

As to GAGACCGCAACTGAAAAGTTGTCCTCAGAAATGGATGGGTTGAATTTCTGCACGTAGAAGCAAAAGGC [T23C A24C], the fraction ligated stood at 0.0187.

Regarding GAGACCGCAACTGAAAAGTTGTCTTCAGAAATGGATGGGTTGAATTTCTGCACGTAGAAGCAAAAGGC [T23C A24T], the fraction ligated amounted to 0.0194.

For GAGACCGCAACTGAAAAGTTGTCGTCAGAAATGGATGGGTTGAATTTCTGCACGTAGAAGCAAAAGGC [T23C A24G], the fraction ligated is 0.0315.

For the variant GAGACCGCAACTGAAAAGTTGTAAACAGAAATGGATGGGTTGAATTTCTGCACGTAGAAGCAAAAGGC [T23A T25A], the fraction ligated is 0.00503.

Consider GAGACCGCAACTGAAAAGTTGTAAGCAGAAATGGATGGGTTGAATTTCTGCACGTAGAAGCAAAAGGC [T23A T25G], for which the fraction ligated came out at 0.00615.

Take GAGACCGCAACTGAAAAGTTGTAACCAGAAATGGATGGGTTGAATTTCTGCACGTAGAAGCAAAAGGC [T23A T25C]: the fraction ligated was 0.0136.
